B5: RPA70N (RPA70 residues 1-120) (domain or fragment, human, UniProt P27694 1-120, looked up)
chain: MVGQLSEGAIAAIMQKGDTNIKPILQVINIRPITTGNSPPRYRLLMSDGLNTLSSFMLATQLNPLVEEEQLSSNCVCQIHRFIVNTLKDGRRVVILMELEVLKSAEAVGVKIGNPVPYNE
notes: RPA70 (replication protein A 70 kDa subunit), human, N-terminal domain, residues 1-120; pET15b construct; 15N-enriched for some NMR samples; also called RPA70_(1-120); RPA70N domain of RPA70; source: E. coli BL21 (DE3), purified (HisTrap, thrombin cleavage, Superdex 75)
B6: PrimPol RPA-binding domain (PrimPol_(480-560)) (domain or fragment, human, UniProt Q96LW4 480-560, looked up)
chain: TTDEADETRSNETQNPHKPSPSRLSTGASADAVWDNGIDDAYFLEATEDAELAEAAENSLLSYNSEVDEIPDELIIEVLQE
notes: 15N-enriched for one NMR sample; also called PrimPolRBD; RBD; source: E. coli BL21(pLysS), purified (Ni Sepharose, Q Sepharose, Superdex 75)
B7: RPA70N^E7R (domain or fragment, human, UniProt P27694 1-120, looked up)
chain: MVGQLSRGAIAAIMQKGDTNIKPILQVINIRPITTGNSPPRYRLLMSDGLNTLSSFMLATQLNPLVEEEQLSSNCVCQIHRFIVNTLKDGRRVVILMELEVLKSAEAVGVKIGNPVPYNE
notes: RPA70, human, N-terminal domain, residues 1-120, with E7R (variant optimised for crystallisation of complexes); source: E. coli BL21 (DE3), purified (HisTrap, thrombin cleavage, Superdex 75)

Conditions in all cases: both partners purified
In experiment [1] the target is B5. The experiment can be described thus: ITC; MicroCal VP-ITC; 400 uM PrimPol RBD (WT or variants) injected into 20 uM RPA70N; 20 mM HEPES pH 7.5, 80 mM NaCl, 3 mM beta-mercaptoethanol; single-site model. (In ITC the heat of successive injections is recorded.)
Experiment [2] deals with B5. The experiment in a line: NMR titration; 15N-1H HSQC at 25 C; 100 uM 15N-enriched RPA70N or 15N-enriched PrimPol 480-560 alone and with 200 uM unlabelled partner; 20 mM HEPES pH 7.5, 80 mM NaCl, 2 mM DTT.
The experiment “RPA70N^E7R” deals with B7. The experiment can be described thus: crystal structure; co-crystals by sitting-drop vapour diffusion at 293 K; RPA70N E7R with PrimPol 514-528 peptide (2.5:1 peptide:protein) or with PrimPol 480-560 (1:1).
The target in experiment [3] is B6. The experiment can be described thus: SEC; analytical gel filtration, Superdex S75 10/300 GL, 50 mM Tris-HCl pH 7.5, 100 mM NaCl, 2 mM TCEP; 0.5 ml loaded at 35 uM; binding read from a shift of the peaks.
Experiment [4] has as its target B6. The experiment can be described thus: SEC-MALS; Superdex 75 increase 10/300 GL, 20 mM HEPES pH 7.1, 80 mM NaCl, 0.5 mM TCEP; RBD at 185 uM with RPA70N E7R at 0, 1, 2 and 4 x molar ratios.

Several values for one entry are separate records, joined by “and”; a condition that tells them apart may be missing. Equal values may be shown once.

B1: PrimPol RBD RBM-A knockout (D514R/D518R/D519R) (domain or fragment, human, UniProt Q96LW4 480-560, looked up)
chain: TTDEADETRSNETQNPHKPSPSRLSTGASADAVWRNGIRRAYFLEATEDAELAEAAENSLLSYNSEVDEIPDELIIEVLQE
notes: PrimPol, human, RBD residues 480-560 with D514R, D518R, D519R; also called PrimPol_(A-KO); RBD_(A-KO); source: E. coli BL21(pLysS), purified (Ni Sepharose, Q Sepharose, gel filtration)
A word on the Kd: it is the equilibrium constant for the complex coming apart. The low end stands for higher affinity, the high end for lower affinity. B1 had a Kd in experiment [1] of 7.8 ± 0.6 µM.

B2: RBM-A peptide (RBM-A_(510-528)) (peptide, UniProt Q96LW4 510-528, looked up)
peptide: DAVWDNGIDDAYFLEATED
notes: source: synthetic peptide (GenScript), HPLC purified
On to B2, for which, in experiment [2], the binding result is reported as “binds”.

B3: PrimPol_(514-528) peptide (peptide, UniProt Q96LW4 514-528, looked up)
peptide: DNGIDDAYFLEATED
notes: PrimPol, human, residues 514-528 (RBM-A), 15-mer; also called RBM-A peptide residues (PrimPol_(514-528)); 15-mer PrimPol_(514-528) peptide; source: synthetic peptide (Genscript), used as supplied
As to B3, the binding result with RPA70N^E7R was “binds”.

B4: PrimPol RBD RBM-B knockout (480-546 truncation) (domain or fragment, human, UniProt Q96LW4 480-546, looked up)
chain: TTDEADETRSNETQNPHKPSPSRLSTGASADAVWDNGIDDAYFLEATEDAELAEAAENSLLSYNSEV
notes: PrimPol, human, residues 480-546 (RBD without RBM-B); also called PrimPol_(B-KO); RBD_(B-KO); source: E. coli BL21(pLysS), purified (Ni Sepharose, Q Sepharose, gel filtration)
The molecule B4 gave a Kd in experiment [1] of 6.7 ± 1.5 µM.

What is called stoichiometry N is the number of molecules, sites or subunits per partner or assembly. On to B5, for which the “stoichiometry N” value in experiment [3] amounted to 2 RPA70N per PrimPolRBD.

With B6, the binding result (in experiment [2]; in the experiment with RPA70N^E7R) was “binds” in each case.

For the molecule B7, the “stoichiometry N” value in experiment [4] is 1 RPA70N per PrimPolRBD and 2 RPA70N per PrimPolRBD.

Values taken from PMC5457501 (Nature Communications, 2017).
